From paper PMC3388944

Biological target: T1, GST-IE(1-1487) (immediate-early protein IEP, full length) (Equine herpesvirus 1, UniProt P17473 1-1487)
T1 sequence: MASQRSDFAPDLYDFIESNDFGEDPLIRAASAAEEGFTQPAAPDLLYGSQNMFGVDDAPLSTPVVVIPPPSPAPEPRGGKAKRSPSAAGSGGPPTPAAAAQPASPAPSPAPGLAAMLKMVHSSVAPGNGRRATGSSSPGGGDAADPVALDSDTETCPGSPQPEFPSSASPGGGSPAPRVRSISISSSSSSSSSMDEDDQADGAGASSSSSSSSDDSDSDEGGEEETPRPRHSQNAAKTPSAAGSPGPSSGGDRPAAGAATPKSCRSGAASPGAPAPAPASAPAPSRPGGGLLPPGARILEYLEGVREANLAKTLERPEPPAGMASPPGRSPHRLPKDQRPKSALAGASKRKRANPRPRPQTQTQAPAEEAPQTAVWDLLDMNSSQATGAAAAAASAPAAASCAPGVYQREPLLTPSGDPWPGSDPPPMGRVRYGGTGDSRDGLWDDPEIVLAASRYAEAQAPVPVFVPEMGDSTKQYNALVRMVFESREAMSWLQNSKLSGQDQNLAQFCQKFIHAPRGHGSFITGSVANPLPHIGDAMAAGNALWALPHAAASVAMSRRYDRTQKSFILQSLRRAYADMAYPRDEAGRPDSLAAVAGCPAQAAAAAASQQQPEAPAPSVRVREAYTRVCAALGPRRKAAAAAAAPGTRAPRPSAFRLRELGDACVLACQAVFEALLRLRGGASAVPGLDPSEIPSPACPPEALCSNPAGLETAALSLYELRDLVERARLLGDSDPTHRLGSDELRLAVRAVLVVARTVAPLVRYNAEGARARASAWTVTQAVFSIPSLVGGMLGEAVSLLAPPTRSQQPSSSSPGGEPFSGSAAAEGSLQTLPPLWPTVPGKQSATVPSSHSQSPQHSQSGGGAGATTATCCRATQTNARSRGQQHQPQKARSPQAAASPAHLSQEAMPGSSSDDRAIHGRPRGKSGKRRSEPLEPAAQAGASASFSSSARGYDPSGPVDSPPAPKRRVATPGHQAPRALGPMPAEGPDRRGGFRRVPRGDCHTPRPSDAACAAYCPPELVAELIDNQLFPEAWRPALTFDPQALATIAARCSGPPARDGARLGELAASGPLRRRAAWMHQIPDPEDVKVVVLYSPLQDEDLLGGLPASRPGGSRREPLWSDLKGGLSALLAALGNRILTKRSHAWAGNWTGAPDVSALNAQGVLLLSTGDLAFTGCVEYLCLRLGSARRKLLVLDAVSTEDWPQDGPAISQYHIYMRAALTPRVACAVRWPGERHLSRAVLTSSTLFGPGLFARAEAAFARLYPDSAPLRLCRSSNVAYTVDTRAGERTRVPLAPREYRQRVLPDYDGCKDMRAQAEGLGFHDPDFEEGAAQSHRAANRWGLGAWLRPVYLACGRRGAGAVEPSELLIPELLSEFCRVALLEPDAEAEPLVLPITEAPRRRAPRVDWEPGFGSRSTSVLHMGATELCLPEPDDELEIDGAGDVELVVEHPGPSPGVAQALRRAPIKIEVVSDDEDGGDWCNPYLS
Test: EMSA

B1: wtIEBS probe (IE promoter -16 to +22) (dsDNA)
DNA 1: TTGCTTACCCATCGTAGCATCGCGGACTAGAGAGCCTT
DNA 2: TTAAGGCTCTCTAGTCCGCGATGCTACGATGGGTAAGC
binding result: binds
